Key:
human LAG-3 on cells [1] = target: T1, human LAG-3 on cells (human, UniProt P18627 23-525); assay: FACS affinity test on cell surface human LAG-3
T1 construct: whole, on cells; also called cell surface human LAG-3; human LAG-3 expressing 293F cells
T1 sequence (looked up): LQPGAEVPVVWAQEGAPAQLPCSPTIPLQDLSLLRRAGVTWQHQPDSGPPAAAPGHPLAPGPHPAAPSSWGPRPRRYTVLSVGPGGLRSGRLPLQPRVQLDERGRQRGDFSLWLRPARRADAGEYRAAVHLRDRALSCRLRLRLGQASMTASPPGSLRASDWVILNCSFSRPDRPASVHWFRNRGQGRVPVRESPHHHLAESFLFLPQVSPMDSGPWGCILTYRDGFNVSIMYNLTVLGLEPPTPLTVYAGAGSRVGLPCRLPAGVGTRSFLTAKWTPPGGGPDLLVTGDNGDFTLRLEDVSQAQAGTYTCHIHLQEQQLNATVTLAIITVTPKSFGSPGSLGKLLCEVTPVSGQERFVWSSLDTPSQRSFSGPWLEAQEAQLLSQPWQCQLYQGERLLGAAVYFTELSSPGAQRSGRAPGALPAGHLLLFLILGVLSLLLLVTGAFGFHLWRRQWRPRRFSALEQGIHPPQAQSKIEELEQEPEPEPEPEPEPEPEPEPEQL

human LAG-3 on cells [2] = target: T1, human LAG-3 on cells; assay: FACS on cell surface human LAG-3
[3] = target: T2, human LAG-3 protein (Example 3) (human, UniProt P18627 23-450, limits assumed); assay: ELISA; blocking of LAG-3 protein binding to LSECtin; ELISA; blocking LAG-3 binding to LSECtin
T2 construct: human is stated for the SPR test
T2 sequence (looked up): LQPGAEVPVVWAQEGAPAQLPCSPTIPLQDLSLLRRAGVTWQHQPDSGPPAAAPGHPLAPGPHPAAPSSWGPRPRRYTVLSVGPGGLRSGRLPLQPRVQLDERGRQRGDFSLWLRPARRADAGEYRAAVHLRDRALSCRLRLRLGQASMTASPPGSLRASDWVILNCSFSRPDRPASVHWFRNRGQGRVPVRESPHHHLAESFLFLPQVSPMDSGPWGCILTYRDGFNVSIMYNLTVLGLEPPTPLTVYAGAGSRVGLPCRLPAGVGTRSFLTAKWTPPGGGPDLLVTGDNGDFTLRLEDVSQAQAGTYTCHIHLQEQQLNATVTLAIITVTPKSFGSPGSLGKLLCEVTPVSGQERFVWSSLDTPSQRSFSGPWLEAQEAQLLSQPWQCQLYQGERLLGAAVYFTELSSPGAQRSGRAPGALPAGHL

[4] = target: cynomolgus LAG-3 (Example 3) (cynomolgus); assay: method not stated
[5] = target: T2, human LAG-3 protein (Example 3); assay: SPR; SPR, direct binding
[6] = target: T2, human LAG-3 protein (Example 3); assay: ELISA; blocking of LAG-3 protein binding to Galectin-3; ELISA; blocking LAG-3 binding to Galectin-3
[7] = target: T2, human LAG-3 protein (Example 3); assay: FACS; blocking of LAG-3 protein binding to MHC-II on Raji cells; FACS; blocking LAG-3 binding to MHC-II on Raji cells

B1: W3395-3.40.19 (antibody, V domains shown)
VH: QLQLQESGPGLVKPSETLSLTCTVSGDSISSTSYYWGWIRQPPGKGLEWIGSFYYSGSTYYNPSLKSRVTISVDTSKNQFSLKLNSVTAADTAVYYCARMQLWSYDVDVWGQGTTVTVSS
VL: QSALTQPASVSGSPGQSITISCTGTSSDVGGYDYVAWYQQHPGKVPKLMIYDVSERPSGVSNRFSGSKSGNTASLTISGLQAEDEADYYCSSYTSTTTLVVFGGGTKLSVL
notes: Fully human monoclonal anti-LAG-3 antibody; also called human W3395-3.40.19 LAG-3 Ab
B1 was tested, and the Kd (human LAG-3 on cells [1]) was 0.053 nM, the EC50 (human LAG-3 on cells [2]) was 0.13 nM and the EC50 [3] was 0.51 nM. It also gave an EC50 [4] of 3.92 nM, a Kd [5] of 0.0106 nM and an EC50 [6] of 0.56 nM. The EC50 [7] was 0.67 nM.
